# Columns and labels:
# fucosylated haptoglobin [1] = target: fucosylated haptoglobin (UniProt P00738); experiment: magnetic bead assay, signal with fHP divided by signal without fHP, no urea
# fucosylated haptoglobin [2] = target: fucosylated haptoglobin (UniProt P00738); experiment: magnetic bead assay: fHP 0.45 µg/mL mixed with recombinant lectin 5 µg/mL, captured on anti-haptoglobin antibody beads, HRP anti-FLAG detection, 5 M urea
# fucosylated haptoglobin [3] = target: fucosylated haptoglobin (UniProt P00738); experiment: magnetic bead assay, 5 M urea against no urea
# fucosylated haptoglobin [4] = target: fucosylated haptoglobin (UniProt P00738); experiment: magnetic bead assay, 5 M urea minus no urea
# fucosylated haptoglobin [5] = target: fucosylated haptoglobin (UniProt P00738); experiment: magnetic bead assay: fHP 0.45 µg/mL mixed with recombinant lectin 5 µg/mL, captured on anti-haptoglobin antibody beads, HRP anti-FLAG detection, no urea
# fucosylated haptoglobin [6] = target: fucosylated haptoglobin (UniProt P00738); experiment: magnetic bead assay, signal with fHP divided by signal without fHP, 5 M urea
# fucosylated haptoglobin [7] = target: fucosylated haptoglobin (UniProt P00738); experiment: sandwich ELISA as in Example 4, captured fHP, biotin-labeled NSL, 5 M urea
# fucosylated haptoglobin [8] = target: fucosylated haptoglobin (UniProt P00738); experiment: sandwich ELISA, 5 M urea minus no urea
# fucosylated haptoglobin [9] = target: fucosylated haptoglobin (UniProt P00738); experiment: sandwich ELISA, 5 M urea against no urea
# fucosylated haptoglobin [10] = target: fucosylated haptoglobin (UniProt P00738); experiment: sandwich ELISA as in Example 4, captured fHP, biotin-labeled NSL, no urea
# fucosylated haptoglobin [11] = target: fucosylated haptoglobin (UniProt P00738); experiment: sandwich ELISA, fHP 200 ng/mL captured by anti-haptoglobin antibody, biotin-labeled lectin 1 µg/mL, no urea
# fucosylated haptoglobin [12] = target: fucosylated haptoglobin (UniProt P00738); experiment: sandwich ELISA, fHP 200 ng/mL captured by anti-haptoglobin antibody, biotin-labeled lectin 1 µg/mL, 5 M urea
# fucosylated haptoglobin [13] = target: fucosylated haptoglobin (UniProt P00738); experiment: sandwich ELISA as in Example 4, captured fHP, biotin-labeled AML, 5 M urea
# fucosylated haptoglobin [14] = target: fucosylated haptoglobin (UniProt P00738); experiment: sandwich ELISA as in Example 4, captured fHP, biotin-labeled AML, no urea
# fucosylated haptoglobin [15] = target: fucosylated haptoglobin (UniProt P00738); experiment: sandwich ELISA as in Example 4, captured fHP, biotin-labeled PTL, 5 M urea
# fucosylated haptoglobin [16] = target: fucosylated haptoglobin (UniProt P00738); experiment: sandwich ELISA as in Example 4, captured fHP, biotin-labeled PTL, no urea
# fucosylated haptoglobin [17] = target: fucosylated haptoglobin (UniProt P00738); experiment: direct adsorption ELISA, fHP immobilized, biotin-labeled PhoSL, 1.2 M thiourea
# fucosylated haptoglobin [18] = target: fucosylated haptoglobin (UniProt P00738); experiment: sandwich ELISA, wash with 1.2 M thiourea against wash without
# fucosylated haptoglobin [19] = target: fucosylated haptoglobin (UniProt P00738); experiment: sandwich ELISA, wash with 1.2 M thiourea minus wash without
# fucosylated haptoglobin [20] = target: fucosylated haptoglobin (UniProt P00738); experiment: direct adsorption ELISA, fHP immobilized, biotin-labeled PhoSL 1 µg/mL, 5 M urea
# α-fetoprotein L3 [21] = target: α-fetoprotein L3 (UniProt P02771); experiment: direct adsorption ELISA, AFP-L3 immobilized, biotin-labeled PhoSL, 1.2 M thiourea
# fucosylated haptoglobin [22] = target: fucosylated haptoglobin (UniProt P00738); experiment: direct adsorption ELISA, fHP immobilized, biotin-labeled PhoSL 1 µg/mL, no urea
# fucosylated haptoglobin [23] = target: fucosylated haptoglobin (UniProt P00738); experiment: sandwich ELISA as in Example 4, thiourea 0 to 1.5 M
# α-fetoprotein L3 [24] = target: α-fetoprotein L3 (UniProt P02771); experiment: direct adsorption ELISA, 5 M urea minus no urea
# fucosylated haptoglobin [25] = target: fucosylated haptoglobin (UniProt P00738); experiment: direct adsorption ELISA, 5 M urea minus no urea
# α-fetoprotein L3 [26] = target: α-fetoprotein L3 (UniProt P02771); experiment: direct adsorption ELISA, 5 M urea against no urea
# fucosylated haptoglobin [27] = target: fucosylated haptoglobin (UniProt P00738); experiment: direct adsorption ELISA, 5 M urea against no urea
# α-fetoprotein L3 [28] = target: α-fetoprotein L3 (UniProt P02771); experiment: direct adsorption ELISA, AFP-L3 immobilized, biotin-labeled PhoSL 1 µg/mL, 5 M urea
# fucosylated haptoglobin [29] = target: fucosylated haptoglobin (UniProt P00738); experiment: sandwich ELISA as in Example 4 (biotin-labeled PhoSL), captured fHP washed with detergent liquid with 5 M urea, no urea in lectin solution
# fucosylated haptoglobin [30] = target: fucosylated haptoglobin (UniProt P00738); experiment: sandwich ELISA as in Example 4 (biotin-labeled PhoSL), captured fHP washed with detergent liquid without urea or thiourea
# fucosylated haptoglobin [31] = target: fucosylated haptoglobin (UniProt P00738); experiment: sandwich ELISA, wash with 5 M urea against wash without
# fucosylated haptoglobin [32] = target: fucosylated haptoglobin (UniProt P00738); experiment: sandwich ELISA as in Example 4 (biotin-labeled PhoSL), captured fHP washed with detergent liquid with 1.2 M thiourea, none in lectin solution
# fucosylated haptoglobin [33] = target: fucosylated haptoglobin (UniProt P00738); experiment: sandwich ELISA as in Example 4, fHP 50 ng/mL, urea 0 to 9 M
# fucosylated haptoglobin [34] = target: fucosylated haptoglobin (UniProt P00738); experiment: sandwich ELISA, wash with 5 M urea minus wash without
# α-fetoprotein L3 [35] = target: α-fetoprotein L3 (UniProt P02771); experiment: direct adsorption ELISA, AFP-L3 immobilized, biotin-labeled PhoSL 1 µg/mL, no urea
# α-fetoprotein L3 [36] = target: α-fetoprotein L3 (UniProt P02771); experiment: direct adsorption ELISA, AFP-L3 immobilized, biotin-labeled PhoSL, no thiourea
# fucosylated haptoglobin [37] = target: fucosylated haptoglobin (UniProt P00738); experiment: direct adsorption ELISA, fHP immobilized, biotin-labeled PhoSL, no thiourea
# α-fetoprotein L3 [38] = target: α-fetoprotein L3 (UniProt P02771); experiment: direct adsorption ELISA, 1.2 M thiourea minus no thiourea
# fucosylated haptoglobin [39] = target: fucosylated haptoglobin (UniProt P00738); experiment: as above
# α-fetoprotein L3 [40] = target: α-fetoprotein L3 (UniProt P02771); experiment: direct adsorption ELISA, 1.2 M thiourea against no thiourea
# fucosylated haptoglobin [41] = target: fucosylated haptoglobin (UniProt P00738); experiment: as above
# fucosylated haptoglobin, sequence (P00738 19-406 limits assumed): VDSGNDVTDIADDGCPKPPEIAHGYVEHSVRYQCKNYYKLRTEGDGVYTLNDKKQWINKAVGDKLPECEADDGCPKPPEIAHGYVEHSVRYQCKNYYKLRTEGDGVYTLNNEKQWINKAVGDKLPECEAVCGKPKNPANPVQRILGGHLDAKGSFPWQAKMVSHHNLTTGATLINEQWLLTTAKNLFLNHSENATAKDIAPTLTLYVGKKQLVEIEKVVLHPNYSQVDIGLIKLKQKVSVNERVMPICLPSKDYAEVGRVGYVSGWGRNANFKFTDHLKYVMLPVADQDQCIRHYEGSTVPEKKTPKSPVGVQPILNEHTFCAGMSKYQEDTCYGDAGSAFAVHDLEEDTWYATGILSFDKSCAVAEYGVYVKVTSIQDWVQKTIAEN
# α-fetoprotein L3, sequence (P02771 19-609 limits assumed): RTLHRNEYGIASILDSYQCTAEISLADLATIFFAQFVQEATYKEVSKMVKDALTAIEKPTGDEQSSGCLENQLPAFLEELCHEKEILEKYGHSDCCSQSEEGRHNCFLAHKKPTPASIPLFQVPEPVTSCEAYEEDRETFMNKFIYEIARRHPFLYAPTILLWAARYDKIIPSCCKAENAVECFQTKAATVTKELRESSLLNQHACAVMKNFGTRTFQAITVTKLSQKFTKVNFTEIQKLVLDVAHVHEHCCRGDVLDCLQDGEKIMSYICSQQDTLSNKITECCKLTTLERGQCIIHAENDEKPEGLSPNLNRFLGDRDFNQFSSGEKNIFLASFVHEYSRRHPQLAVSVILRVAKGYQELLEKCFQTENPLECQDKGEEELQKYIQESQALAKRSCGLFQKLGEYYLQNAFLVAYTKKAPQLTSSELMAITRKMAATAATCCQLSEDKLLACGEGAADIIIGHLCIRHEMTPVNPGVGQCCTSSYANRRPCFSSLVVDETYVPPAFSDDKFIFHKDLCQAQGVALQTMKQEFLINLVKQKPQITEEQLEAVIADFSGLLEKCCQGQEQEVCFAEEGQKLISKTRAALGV
substance,measurement,setting,value
PhoSL recombinant lectin,Reaction value (S/N)urea 0M,fucosylated haptoglobin [1],6.83
same,Reaction value (S - N)urea 5M (absorbance (450 nm - 630 nm)),fucosylated haptoglobin [2],0.708
same,Increased rate of signal,fucosylated haptoglobin [3],1.56 fold
same,Increased amount of signal (absorbance (450 nm - 630 nm)),fucosylated haptoglobin [4],0.253
same,Reaction value (S - N)urea 0M (absorbance (450 nm - 630 nm)),fucosylated haptoglobin [5],0.455
same,Reaction value (S/N)urea 5M,fucosylated haptoglobin [6],26.3
"Naematoloma sublateritium lectin (NSL), biotin-labeled",Reaction value (S - N)urea 5M (absorbance (450 nm - 630 nm)),fucosylated haptoglobin [7],1.34
same,Increased amount of signal (absorbance (450 nm - 630 nm)),fucosylated haptoglobin [8],0.922
same,Increased rate of signal,fucosylated haptoglobin [9],3.18 fold
same,Reaction value (S - N)urea 0M (absorbance (450 nm - 630 nm)),fucosylated haptoglobin [10],0.423
"PhoSL peptide, biotin-labeled",Increased amount of signal (absorbance (450 nm - 630 nm)),fucosylated haptoglobin [8],0.052
same,Reaction value (S - N)urea 0M (absorbance (450 nm - 630 nm)),fucosylated haptoglobin [11],0.162
same,Increased rate of signal,fucosylated haptoglobin [9],1.32 fold
same,Reaction value (S - N)urea 5M (absorbance (450 nm - 630 nm)),fucosylated haptoglobin [12],0.214
Biotin-labeled Aleuria aurantia lectin (from UniProt P18891 2-313),Increased amount of signal (absorbance (450 nm - 630 nm)),fucosylated haptoglobin [8],-0.103
same,Reaction value (S - N)urea 0M (absorbance (450 nm - 630 nm)),fucosylated haptoglobin [11],0.877
same,Increased rate of signal,fucosylated haptoglobin [9],0.88 fold
same,Reaction value (S - N)urea 5M (absorbance (450 nm - 630 nm)),fucosylated haptoglobin [12],0.774
"Amanita muscaria lectin (AML), biotin-labeled",Increased amount of signal (absorbance (450 nm - 630 nm)),fucosylated haptoglobin [8],0.521
same,Increased rate of signal,fucosylated haptoglobin [9],20.3 fold
same,Reaction value (S - N)urea 5M (absorbance (450 nm - 630 nm)),fucosylated haptoglobin [13],0.548
same,Reaction value (S - N)urea 0M (absorbance (450 nm - 630 nm)),fucosylated haptoglobin [14],0.027
"Pholiota terrestris lectin (PTL), biotin-labeled",Reaction value (S - N)urea 5M (absorbance (450 nm - 630 nm)),fucosylated haptoglobin [15],1.28
same,Increased amount of signal (absorbance (450 nm - 630 nm)),fucosylated haptoglobin [8],0.743
same,Increased rate of signal,fucosylated haptoglobin [9],2.37 fold
same,Reaction value (S - N)urea 0M (absorbance (450 nm - 630 nm)),fucosylated haptoglobin [16],0.542
"Pholiota squarrosa lectin (PhoSL), biotin-labeled",Reaction value (S - N)thiourea 1.2M (absorbance (450 nm - 630 nm)),fucosylated haptoglobin [17],1.04
same,Increased rate of signal,fucosylated haptoglobin [18],1.67 fold
same,Increased amount of signal (absorbance (450 nm - 630 nm)),fucosylated haptoglobin [19],0.364
same,Reaction value (S - N)urea 5M (absorbance (450 nm - 630 nm)),fucosylated haptoglobin [20],0.724
same,Reaction value (S - N)thiourea 1.2M (absorbance (450 nm - 630 nm)),α-fetoprotein L3 [21],0.117
same,Increased amount of signal (absorbance (450 nm - 630 nm)),fucosylated haptoglobin [8],0.531
same,Reaction value (S - N)urea 0M (absorbance (450 nm - 630 nm)),fucosylated haptoglobin [22],0.253
same,Reaction value (S - N)urea 0M (absorbance (450 nm - 630 nm)),fucosylated haptoglobin [11],0.265
same,Increased rate of signal,fucosylated haptoglobin [9],3 fold
same,increased rate of the signals against no thiourea,fucosylated haptoglobin [23],1.2 to 4.1 times
same,Increased amount of signal (absorbance (450 nm - 630 nm)),α-fetoprotein L3 [24],0.124
same,Increased amount of signal (absorbance (450 nm - 630 nm)),fucosylated haptoglobin [25],0.471
same,Increased rate of signal,α-fetoprotein L3 [26],16.5 fold
same,Increased rate of signal,fucosylated haptoglobin [27],2.86 fold
same,Reaction value (S - N)urea 5M (absorbance (450 nm - 630 nm)),α-fetoprotein L3 [28],0.132
same,Reaction value (S - N)urea 5M (absorbance (450 nm - 630 nm)),fucosylated haptoglobin [29],1
same,Reaction value (S - N)0M (absorbance (450 nm - 630 nm)),fucosylated haptoglobin [30],0.545
same,Increased rate of signal,fucosylated haptoglobin [31],1.84 fold
same,Reaction value (S - N)thiourea 1.2M (absorbance (450 nm - 630 nm)),fucosylated haptoglobin [32],0.909
same,increased rate of the signals against no urea,fucosylated haptoglobin [33],1.2 to 2.8 times
same,Reaction value (S - N)urea 5M (absorbance (450 nm - 630 nm)),fucosylated haptoglobin [12],0.796
same,Increased amount of signal (absorbance (450 nm - 630 nm)),fucosylated haptoglobin [34],0.457
same,Reaction value (S - N)urea 0M (absorbance (450 nm - 630 nm)),α-fetoprotein L3 [35],0.008
same,Reaction value (S - N)thiourea 0M (absorbance (450 nm - 630 nm)),α-fetoprotein L3 [36],0.003
same,Reaction value (S - N)thiourea 0M (absorbance (450 nm - 630 nm)),fucosylated haptoglobin [37],0.36
same,Increased amount of signal (absorbance (450 nm - 630 nm)),α-fetoprotein L3 [38],0.114
same,Increased amount of signal (absorbance (450 nm - 630 nm)),fucosylated haptoglobin [39],0.681
same,Increased rate of signal,α-fetoprotein L3 [40],39 fold
same,Increased rate of signal,fucosylated haptoglobin [41],2.89 fold
"Stropharia rugosoannulata lectin (SRL), biotin-labeled",Increased amount of signal (absorbance (450 nm - 630 nm)),fucosylated haptoglobin [8],0.433
same,Reaction value (S - N)urea 0M (absorbance (450 nm - 630 nm)),fucosylated haptoglobin [11],0.43
same,Increased rate of signal,fucosylated haptoglobin [9],2.01 fold
same,Reaction value (S - N)urea 5M (absorbance (450 nm - 630 nm)),fucosylated haptoglobin [12],0.863

# From US20170336415A1
